From PMC4075432

How the values were obtained:
GST-BCL2 = GST-BCL2 (UniProt P10415); assay: fluorescence polarisation
[1] = molecular target: BCL2 (human (endogenous in OCI-LY8)) (UniProt P10415); assay: co-IP

Row | Ki (GST-BCL2) [µM] | percent of PARP1 displaced from BCL2 by 100 nM ABT-737 [1] [%] | Substance
1 | 0.077 | – | purified PARP1 (from UniProt P09874 1-1014) (enzyme)
2 | – | 65 | poly(ADP) ribose polymerase 1 (PARP1) (from UniProt P09874 1-1014) (enzyme)
